{
  "source": "paper PMC8401098",
  "about": "“The Uncommon Active Site of D-Amino Acid Transaminase from Haliscomenobacter hydrossis: Biochemical and Structural Insights into the New Enzyme” (Molecules, 2021)",
  "molecules": {"B1": {"name": "Halhy (D-amino acid transaminase from Haliscomenobacter hydrossis) (Haliscomenobacter hydrossis DSM 1100; R179G) (protein)", "chain": "MIKYYNINGQQVPVENATLHVSDLSILRGYGIFDYFLAREGHPLFLDDYLNRFYRSAAELYLEIPFDKAELRRQIYALLQANEVREAGIRLVLTGGYSPDGYTPVNPNLLIMMYDLPASAWEFSAQGIKIITHPFQRELPEVKTINYSTGIRMLKTIKERGATDLIYVDQGEWIRESAGSNFFLVMPDNTIVTADEKILWGITRRQVIDAAREAGYAVEERRIHITELDQAREAFFTSTIKGVMAIGQIDDRVFGDGTIGKVTQELQDLFVGKVKAYLETC", "notes": "N-terminal His6-TEV tag cut off with TEV protease; E. coli Rosetta(DE3) pLysS; codon-optimised synthetic gene; homodimer (about 62 kDa by gel filtration)"}, "B2": {"name": "Halhy (D-amino acid transaminase from Haliscomenobacter hydrossis) (Haliscomenobacter hydrossis DSM 1100) (protein)", "chain": "B1 chain with G179R", "notes": "as for B1"}},
  "key": {"[1]": {"target": "T1, Halhy (D-amino acid transaminase from Haliscomenobacter hydrossis) (Haliscomenobacter hydrossis, UniProt F4KWH0)", "T1 construct": "gene Halhy_2446; N-terminal His6-TEV tag cut off with TEV protease; E. coli Rosetta(DE3) pLysS; codon-optimised synthetic gene; homodimer (about 62 kDa by gel filtration)", "T1 sequence (F4KWH0 entry or part of it)": "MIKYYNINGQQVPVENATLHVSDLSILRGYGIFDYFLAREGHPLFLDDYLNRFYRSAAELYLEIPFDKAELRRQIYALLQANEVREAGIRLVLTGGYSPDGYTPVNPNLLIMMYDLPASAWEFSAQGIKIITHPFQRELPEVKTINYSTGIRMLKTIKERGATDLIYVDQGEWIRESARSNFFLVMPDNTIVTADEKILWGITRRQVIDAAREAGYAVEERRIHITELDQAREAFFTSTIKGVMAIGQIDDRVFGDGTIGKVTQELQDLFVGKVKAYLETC", "assay": "X-ray crystal structure, […] Å", "type": "binding", "conditions": "covalent; Schiff base with K143; holo form, pH 4.8"}, "[2]": {"substrate": "O=C(O)CCC(=O)C(=O)O", "assay": "purified protein", "type": "biochemical, Haliscomenobacter hydrossis", "conditions": "D-alanine 40 mM, 50 mM K-phosphate pH 8, 30 µM PLP"}, "[3]": {"substrate": "CC(C)CC(=O)C(=O)O", "assay": "steady-state kinetics of overall transamination", "type": "biochemical, Haliscomenobacter hydrossis", "conditions": "D-alanine 40 mM, 50 mM K-phosphate pH 8, 30 µM PLP, 40 °C", "source_text": "steady-state kinetics of overall transamination on Halhy (D-amino acid transaminase from Haliscomenobacter hydrossis)"}, "[4]": {"substrate": "N[C@H](CCC(=O)O)C(=O)O", "assay": "purified protein", "type": "biochemical, Haliscomenobacter hydrossis", "conditions": "pyruvate 2.5 mM, 50 mM K-phosphate pH 8, 30 µM PLP, 40 °C"}, "[5]": {"substrate": "CC(=O)C(=O)O", "assay": "purified protein", "type": "biochemical, Haliscomenobacter hydrossis", "conditions": "D-glutamate 4 mM, 50 mM K-phosphate pH 8, 30 µM PLP, 40 °C"}, "[6]": {"substrate": "CC(C)C[C@@H](N)C(=O)O", "assay": "steady-state kinetics of overall transamination (HPLC of 4-methyl-2-oxovalerate)", "type": "biochemical, Haliscomenobacter hydrossis", "conditions": "α-ketoglutarate 5 mM, 50 mM K-phosphate pH 8, 30 µM PLP, 40 °C", "source_text": "steady-state kinetics of overall transamination (HPLC of 4-methyl-2-oxovalerate) on Halhy (D-amino acid transaminase from Haliscomenobacter hydrossis)"}, "[7]": {"substrate": "C[C@@H](N)C(=O)O", "assay": "purified protein", "conditions": "α-ketoglutarate 5 mM, 50 mM K-phosphate pH 8, 30 µM PLP, 40 °C"}},
  "note": "Substitutions are numbered along the chain they refer to. Names may count otherwise.",
  "data": [
    {"molecule": "Cc1ncc(COP(=O)(O)O)c(C=O)c1O", "note": "[pyridoxal-5'-phosphate]", "values": [
      {"measurement": "X-ray crystal structure, 2.0 Å", "setting": "[1]", "value": "structure of WT Halhy in the holo form with a covalently bound PLP was determined"}
    ]},
    {"molecule": "B1", "values": [
      {"measurement": "Km", "setting": "[2]; 25 °C", "value": "8.1 ± 0.8", "unit": "mM"},
      {"measurement": "kcat", "setting": "[2]; 25 °C", "value": "8.6 ± 0.6", "unit": "s⁻¹"},
      {"measurement": "kcat/Km", "setting": "[2]; 25 °C", "value": 1100, "unit": "M⁻¹ s⁻¹"}
    ]},
    {"molecule": "B2", "values": [
      {"measurement": "Km", "setting": "[3]", "value": "70 ± 6", "unit": "mM"},
      {"measurement": "kcat", "setting": "[3]", "value": "4.2 ± 0.1", "unit": "s⁻¹"},
      {"measurement": "kcat/Km", "setting": "[3]", "value": 60, "unit": "M⁻¹ s⁻¹"},
      {"measurement": "Km", "setting": "[4]", "value": "10.3 ± 0.7", "unit": "mM"},
      {"measurement": "kcat", "setting": "[4]", "value": "215 ± 6", "unit": "s⁻¹"},
      {"measurement": "kcat/Km", "setting": "[4]", "value": "21000 ± 2000", "unit": "M⁻¹ s⁻¹"},
      {"measurement": "Km", "setting": "[2]; 40 °C", "value": "2.3 ± 0.2", "unit": "mM"},
      {"measurement": "kcat", "setting": "[2]; 40 °C", "value": "146 ± 4", "unit": "s⁻¹"},
      {"measurement": "kcat/Km", "setting": "[2]; 40 °C", "value": "63000 ± 7000", "unit": "M⁻¹ s⁻¹"},
      {"measurement": "Km", "setting": "[5]", "value": "2.1 ± 0.1", "unit": "mM"},
      {"measurement": "kcat", "setting": "[5]", "value": "215 ± 6", "unit": "s⁻¹"},
      {"measurement": "kcat/Km", "setting": "[5]", "value": "103000 ± 8000", "unit": "M⁻¹ s⁻¹"},
      {"measurement": "Km", "setting": "[6]", "value": "83 ± 8", "unit": "mM"},
      {"measurement": "kcat", "setting": "[6]", "value": "10.5 ± 0.4", "unit": "s⁻¹"},
      {"measurement": "kcat/Km", "setting": "[6]", "value": 130, "unit": "M⁻¹ s⁻¹"},
      {"measurement": "Km", "setting": "[7]", "value": "23 ± 1", "unit": "mM"},
      {"measurement": "kcat", "setting": "[7]", "value": "146 ± 4", "unit": "s⁻¹"},
      {"measurement": "kcat/Km", "setting": "[7]", "value": 6300, "unit": "M⁻¹ s⁻¹"}
    ]}
  ]
}
